# Target: HIV-1 RT wild type (HIV-1, UniProt P04585;P04585 588-1147;588-1027)
# Assay: competition (inhibition of polymerase activity); 6 mM Mg2+; 24 nM template-primer; 80 mM KCl, 50 mM Tris-Cl pH 8.0, 6 mM MgCl2, 1 mM DTT, 0.1 mg/ml BSA, 24 nM template-primer (16S rRNA/VP200), dNTPs, 25 ng RT per 50 ul, 37 C, 15 min; IC50 of p
# Conditions: protein: recombinant; copies: 1;1
binder,measurement,value
ATCCGCCTGATTAGCGATACTCAGAAGGATAAACTGTCCAGAACTTGGA (ssDNA) [RT1t49],IC50,1.5 ± 0.03 nM
